Measurements: the supplement of paper PMC10567573

B1: GLTSCR2 (parent)
chain: YNPSFEDHQTLLSAAHEVELQRQK

Variants of: B1
Test: protein stability index of a GFP-peptide fusion (GPS, HEK-293T) (PSI 1-6); higher = more stable
Details: c terminus: a fixed tail appended
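Further: lentivirally expressed fusions sorted by FACS into six bins by GFP to DsRed ratio, PSI derived from sequencing read proportions per bin multiplied by bin number.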

Protein stability index, by site and new letter:
Y1: L 5.03; W 4.16; E 4.87; N 4.71; R 5.37; V 5.11
S13: H 3.47; W 1.51; D 3.88; F 2.66; R 2.56; N 3.66; P 4.2; G 3.29; Q 3.66
R22: T 3.96; D 4.84; E 4.69; L 3.18; P 4.21; Q 4.24; N 4.32
E6: V 3; K 2.72; C 3.25; H 3.18; L 3.04; N 3.33; W 2.75; T 3.09
V18: I 3.67; C 3.65; R 3.43; M 3.65; F 3.1; L 3.69; G 3.79
H16: C 3.28; P 4.19; Y 3.34; N 3.92; E 4.38; T 3.93; W 2.51
L20: N 4.09; Q 3.87; V 3.63; D 4.29; I 3.71; A 4.04; W 3.19
L12: Y 3.63; F 2.35; P 5.16; E 5.25; M 4.29; D 5.35
P3: M 4.08; Q 5.13; V 3.73; I 3.82; S 4.28; K 4.3
Q21: N 3.71; P 4.07; C 3.61; E 3.42; D 4.16; M 3.06; Y 3.18; A 3.34
L11: Q 4.88; I 2.96; Y 3.25; C 4.26; A 4.7; R 4.19; G 4.58; M 4.19
A15: C 3.3; Q 3.82; H 3.56; W 2.3
A14: L 3.09; S 4.2; E 4.63; R 3.48; Y 2.65
Q23: E 4.13; M 3.4; R 3.5; S 3.63; T 3.68; C 3.06; A 3.75; L 3.21
F5: H 4.09; P 4.02; I 4.07; M 3.5; T 4.28; E 4.9; N 4.43
E19: F 2.49; M 3.01; Q 3.36; W 2.75; K 3.25; N 3.36; L 2.28; C 3.33; R 2.69
T10: Q 3.47; I 3.05; G 3.87; S 3.94
N2: P 4.76; A 2.13; G 4.39; C 2.74; V 1.6; E 4.46; Q 4.47; F 3.81
S4: M 4.21; I 3.82; Y 4.27; R 4.65; D 4.72; G 3.88; C 4.07; A 4.1; T 3.79; H 4.26; N 4.48
Q9: H 3.68; W 2.2; Y 3.36; S 4.09; F 2.45; D 4.5; V 3.24; I 2.6
K24: R 3.21; E 4.36; F 2.66; L 3.48; V 3.31
E17: P 3.33; H 2.78; M 3.29; C 2.88; T 3.36
D7: L 3.35; S 4.11; H 3.67; I 3.21; R 3.7; G 4.17
H8: C 2.67; W 1.88; T 3.11; M 2.72; G 4.05; Y 1.54; L 2.22; A 3.79
